Laboratory results taken from US20230151079.

These substances were tested on Recombinant protein (SEQ ID NO: 1), modified from sculptin of the tick Amblyomma cajennense.

Row | Substance | hydrolysis of recombinant protein by serine protease (SDS-PAGE, 6 h)
1 | plasmin | strip of 20-kDa completely disappeared in recombinant protein incubated by plasm in and trypsin
2 | factor Xa | factor Xa also converted the recombinant protein in fragments
3 | trypsin | strip of 20-kDa completely disappeared in recombinant protein incubated by plasm in and trypsin
4 | thrombin | strip intensity of 20-kDa (corresponding to non-digested recombinant protein) decreased and strips of lower molecular weight appeared in recombinant protein incubated by thrombin
